{
  "source": "patent US20090227507A1",
  "about": "“Angiotensin (1-7) Dosage Forms and Uses Thereof” (UNIVERSITY OF SOUTHERN CALIFORNIA, priority 2008, published 2009)",
  "assay": "Vital signs (blood pressure, pulse rate, respiration rate, oral temperature) in healthy men",
  "type": "in vivo, human",
  "settings": "for oral body temperature, Subject 042 / oral body temperature, Subject 046 / oral body temperature, Subject 053 / oral body temperature, Subject 055: 300 μg/kg",
  "procedure": "Safety assessments during the study period included vital sign measurement (systolic [SBP] and diastolic [DBP] blood pressure, heart rate [HR], respiratory rate [RR] in the sitting position, and oral temperature), clinical chemistry, hematology, urinalysis, 12-lead electrocardiogram (ECG) in the supine position, and AE monitoring. Clinical chemistry/hematology samples were drawn within a 30-minute period prior to dosing on selected dosing days.\nVital signs were measured immediately prior to dosing, every hour for the first 6 hours post-dosing, then every 3 hours up to 12 hours post-dosing.\nVital signs, including SBP, DBP, RR, and HR were done at Screening, on each day immediately before and at 1, 3, and 6 hours after each SC injection, and at 24 hours after the last injection on Day 7. On Day 1, they were taken every hour for the first 6 hours, then every 3 hours up to 12 hours after the dose.",
  "key": {"[1]": {"settings": "approximately 6 hours after Day 3 study medication"}},
  "data": [
    {"substance": "Asp-Arg-Val-Tyr-Ile-His-Pro [USB003]", "values": [
      {"measurement": "change from baseline in mean body temperatures", "setting": "300 μg/kg dose group compared to 200 μg/kg, especially 6-hour post-dose, Study Day 3", "result": "clearly notable increase"},
      {"measurement": "oral body temperature, Subject 042", "setting": "Day 1, 4-hour post-dose", "result": 37.8, "unit": "°C"},
      {"measurement": "oral body temperature, Subject 042", "setting": "Day 1, 9-hour post-dose", "result": 38.1, "unit": "°C"},
      {"measurement": "oral body temperature, Subject 042", "setting": "Day 1, one hour after first dose", "result": 37.4, "unit": "°C"},
      {"measurement": "oral body temperature, Subject 042", "setting": "Day 2, 6-hour-post-dose", "result": 38.7, "unit": "°C"},
      {"measurement": "oral body temperature, Subject 042", "setting": "Day 2 pre-dose", "result": 37.4, "unit": "°C"},
      {"measurement": "oral body temperature, Subject 046", "setting": "Day 2 pre-dose", "result": 35.9, "unit": "°C"},
      {"measurement": "oral body temperature, Subject 046", "setting": "Day 3, 6-hour post-dose", "result": 37.9, "unit": "°C"},
      {"measurement": "oral body temperature, Subject 046", "setting": "Day 4 pre-dose", "result": 36.8, "unit": "°C"},
      {"measurement": "oral body temperature, Subject 053", "setting": "Day 4 pre-dose", "result": 36.4, "unit": "°C"},
      {"measurement": "oral body temperature, Subject 055", "setting": "Day 4 pre-dose", "result": 37.1, "unit": "°C"},
      {"measurement": "oral body temperature, Subject 053", "setting": "Day 7 pre-dose", "result": 37.0, "unit": "°C"},
      {"measurement": "oral body temperature, Subject 042", "setting": "Day 8", "result": 36.9, "unit": "°C"},
      {"measurement": "oral body temperature, Subject 053", "setting": "[1]", "result": 37.8, "unit": "°C"},
      {"measurement": "oral body temperature, Subject 055", "setting": "[1]", "result": 38.0, "unit": "°C"},
      {"measurement": "oral body temperature, Subject 053", "setting": "approximately 6 hours after Day 6 study medication", "result": 37.9, "unit": "°C"},
      {"measurement": "oral body temperature, Subject 046", "setting": "approximately 7 hours and 45 minutes after first dosing", "result": 37.8, "unit": "°C"},
      {"measurement": "oral body temperature, Subject 046", "setting": "approximately 14 hours after the first dose", "result": 38.0, "unit": "°C"},
      {"measurement": "oral body temperature, Subject 046", "setting": "one hour after first dose", "result": 37.3, "unit": "°C"},
      {"measurement": "changes from baseline for the mean RR", "setting": "all measured time points", "result": "no clinically meaningful changes"},
      {"measurement": "mean change in pulse rate", "setting": "by 3-hour post-dose in all treatment groups, continuing in the USB003 groups at last vital sign of the day", "result": "mildly notable increase"},
      {"measurement": "change in mean SBP and DBP compared to baseline", "setting": "no apparent difference in dose groups", "result": "mild decrease"}
    ]}
  ]
}
